Data taken from publication PMC2743916 (Structure (London, England : 1993), 2008).

T1: Spt4 (residues 1-99) (S. cerevisiae, UniProt P32914 1-99)
T1 sequence (looked up): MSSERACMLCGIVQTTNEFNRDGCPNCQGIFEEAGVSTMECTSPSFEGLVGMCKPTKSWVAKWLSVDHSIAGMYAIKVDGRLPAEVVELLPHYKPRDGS


Assays:
crystal structure = target: the molecule itself; assay: crystal structure
Spt4 (residues 1-99) = target: T1, Spt4 (residues 1-99); assay: crystal structure

Row | Binder | binding result (crystal structure) | binding result (Spt4 (residues 1-99))
1 | Spt4/Spt5NGN fusion protein (other, S. cerevisiae) MSSERACMLCGIVQTTNEFNRDGCPNCQGIFEEAGVSTMECTSPSFEGLVGMCKPTKSWVAKWLSVDHSIAGMYAIKVDGRLPAEVVELLPHYKPRDGSGSATIWGVRCRPGKEKELIRKLLKKKFNLDRAMGKKKLKILSIFQRDNYTGRIYIEAPKQSVIEKFCNGVPDIYISQKLLIPVQELPLLLKPN | binds | –
2 | Spt5NGN domain (residues 285-375) (domain or fragment, S. cerevisiae, UniProt P27692 285-375, looked up) ATIWGVRCRPGKEKELIRKLLKKKFNLDRAMGKKKLKILSIFQRDNYTGRIYIEAPKQSVIEKFCNGVPDIYISQKLLIPVQELPLLLKPN | – | binds
